# Legend:
# [1] = molecular target: T1, Taq DNA polymerase (Thermus aquaticus, UniProt P19821 P19821:1-832); experiment: FP filter; printed as >>1000; 55C; IT50 <40C; conditions: tags: rTaq, 94 kDa, Roche Molecular Systems; label: end-labeled
# Procedure: (§1) Binding interactions of individual sequences with Taq polymerase was measured by nitrocellulose filter binding at 55° C. […] Clones 6 (SEQ ID NO:78), 22 (SEQ ID NO:81) and 28 (SEQ ID NO:87) all show high-affinity binding to Taq polymerase at 55° C. as characterized by their K_d values in the low picomolar range.
# [2] = molecular target: T1, Taq DNA polymerase; experiment: FP filter; Tm 51C; conditions: tags: rTaq, 94 kDa, Roche Molecular Systems; stem-loop
# Procedure: Room Temperature. To assess the affinity of oligonucleotide libraries and individual ligands the nitrocellulose filter binding technique was used. Briefly, gel-purified ^32P ss-DNA pools labeled at the 5' end were suspended in the binding buffer, heated to 80° C., chilled on ice and then brought to room temperature. The DNA (5–10 pM) was then incubated for 15 minutes at room temperature with varying amounts of the target polymerase in 50 µL of the appropriate binding buffer containing 0.1 µg of tRNA and 0.01% hSA. The DNA concentrations were kept lower than 100 pM to ensure equilibrium in the presence of excess protein concentrations. […] The amount of DNA bound to the filters was quantitated by measuring the radioactivity of the filters by liquid scintillation counting. The quantity of DNA bound to filters in the absence of protein was used for background correction. […]
# [1]The boxed region denotes the conserved sequence element with the predicted stem-loop structure identified in the Family I sequences; vertical lines signify Watson-Crick type base pairing; circles show an uncommon G-T base pair. [2]K_d values were measured by the nitrocellulose filter binding technique described in Example 1. [3]Melting transitions (T_m) were measured in a PCR buffer containing 10 mM Tris-HCl, 50 mM KCl, 2 mM MgCl_2, pH 8.3, at a 1° C./min temperature ramp.
# [3] = molecular target: T1, Taq DNA polymerase; experiment: FP filter; 55C; IT50 52.3C; conditions: tags: rTaq, 94 kDa, Roche Molecular Systems; label: end-labeled
# [4] = molecular target: T1, Taq DNA polymerase; experiment: FP filter; 55C; IT50 53.7C; conditions: tags: rTaq, 94 kDa, Roche Molecular Systems; label: end-labeled
# Procedure: as §1
# [5] = molecular target: T1, Taq DNA polymerase; experiment: FP filter; 55C; IT50 41C; conditions: tags: rTaq, 94 kDa, Roche Molecular Systems; label: end-labeled
# [6] = molecular target: T1, Taq DNA polymerase; experiment: FP filter; 55C; IT50 44.6C; conditions: tags: rTaq, 94 kDa, Roche Molecular Systems; label: end-labeled
# [7] = molecular target: T1, Taq DNA polymerase; experiment: FP filter; Tris buffer 55C; 5 pM at 40C; Tricine 4.6 (40C), 36 (55C) pM; IT50 54.8C; conditions: tags: rTaq, 94 kDa, Roche Molecular Systems; label: end-labeled
# Procedure: as §1
# (§2) The binding analysis shown in FIGS. 4A–E were performed in the Tris buffer at 55° C. […] (Table 7).
# [8] = molecular target: T1, Taq DNA polymerase; experiment: inhibition; 45C; conditions: tags: rTaq, 94 kDa, Roche Molecular Systems; label: end-labeled
# Procedure: (§3) As set forth in Table 12, the $IT50$ values of truncated ligands TQH6-Tr, TQH22-Tr and TQH28-Tr were decreased by 5–9° C. upon truncation.
# (§4) Measurement of $IC50$ Values. $IC50$ values (the concentration of inhibitor required to produce 50% of the product in the assay) were obtained using hairpin extension assays. In a typical inhibition assay, a 20 μL reaction contained either 0.25 (0.04) pmoles of Taq polymerase (5 U) (1 U), 0.125 pmoles of Tth polymerase (2.5 U) or 0.05 pmoles of TZ05 polymerase (1 U), oligonucleotide inhibitor (at varying concentrations), […] dNTPs in either Tris or Tricine buffer (Taq and Tth pol) or TZ05 buffer (TZ05 pol). Gel purified, 5'-end-labeled hairpin DNA substrate (DNA-HP; 5'-[…]-3' (SEQ ID NO:6)) was then added to a final concentration of 250 nM and the reactions were incubated for a given time at the desired temperature as indicated in the figure legends (30 minutes for TZ05 pol). The reaction was stopped by adding 5 μL of 0.5 M EDTA (pH 8.0) followed by formamide gel loading buffer. Extension products were resolved on 10% polyacrylamide gels under denaturing conditions and quantitated by phosphorimager. The amount of products formed in the presence of inhibitor was normalized to the product formed in the absence of an inhibitor to obtain the percent of product.
# [9] = molecular target: T1, Taq DNA polymerase; experiment: inhibition; 45C; IT50 56.1C; conditions: tags: rTaq, 94 kDa, Roche Molecular Systems; label: end-labeled
# Procedure: as §3, §4
# [10] = molecular target: T1, Taq DNA polymerase; experiment: FP filter; Tris buffer 55C; 3.8 pM at 40C; Tricine 5.6 (40C), 18 (55C) pM; IT50 56C; conditions: tags: rTaq, 94 kDa, Roche Molecular Systems; label: end-labeled
# Procedure: as §1, §2
# [11] = molecular target: T1, Taq DNA polymerase; experiment: FP filter; Tris buffer 55C; 5 pM at 40C; Tricine 9.4 (40C), 116 (55C) pM; IT50 52C; conditions: tags: rTaq, 94 kDa, Roche Molecular Systems; label: end-labeled
# Procedure: as §1, §2
# [12] = molecular target: T1, Taq DNA polymerase; experiment: FP filter; 55C; IT50 52C; conditions: tags: rTaq, 94 kDa, Roche Molecular Systems; label: end-labeled
# T1 sequence (P19821 whole entry, one chain of several): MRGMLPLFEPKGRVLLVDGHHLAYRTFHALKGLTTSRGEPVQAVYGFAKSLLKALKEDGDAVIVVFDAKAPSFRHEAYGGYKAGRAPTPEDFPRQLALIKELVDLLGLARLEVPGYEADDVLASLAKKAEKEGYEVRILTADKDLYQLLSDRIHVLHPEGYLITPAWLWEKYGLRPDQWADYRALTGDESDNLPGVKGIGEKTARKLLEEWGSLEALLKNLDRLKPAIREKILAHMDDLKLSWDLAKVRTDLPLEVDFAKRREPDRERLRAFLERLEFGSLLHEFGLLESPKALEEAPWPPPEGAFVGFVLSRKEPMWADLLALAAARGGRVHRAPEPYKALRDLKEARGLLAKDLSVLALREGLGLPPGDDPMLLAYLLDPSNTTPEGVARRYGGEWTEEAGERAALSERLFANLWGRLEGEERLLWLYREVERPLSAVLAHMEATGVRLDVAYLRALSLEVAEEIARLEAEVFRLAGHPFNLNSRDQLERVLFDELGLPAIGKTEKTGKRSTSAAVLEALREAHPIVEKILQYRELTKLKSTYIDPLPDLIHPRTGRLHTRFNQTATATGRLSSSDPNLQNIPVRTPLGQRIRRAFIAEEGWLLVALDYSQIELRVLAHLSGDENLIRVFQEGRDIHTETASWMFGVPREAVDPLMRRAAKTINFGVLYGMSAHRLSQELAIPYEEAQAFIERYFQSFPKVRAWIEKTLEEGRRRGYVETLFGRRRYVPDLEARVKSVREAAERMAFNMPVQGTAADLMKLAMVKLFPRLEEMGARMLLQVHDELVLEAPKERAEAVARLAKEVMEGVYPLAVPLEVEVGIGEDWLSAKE
binder,measurement,setting,value
ligand 18 (ssDNA) DNA: TTCTCGGTTGGTCTCTGGCGGAGCATACACGACGTCATTCTAGCGTTTTGTCTTGTGTATGATTCGCTTTTCCC,Kd,[1],> 1 nM
"AAGACCAGACAATGTACAGTATTGGCCTGA (ssDNA, [none]) [Trnc.A-30 (30-mer)]",Kd,[2],0.6 nM
ligand 15 (ssDNA) DNA: TTCTCGGTTGGTCTCTGGCGGAGCATGCACAGCGACATTCTCAGCGTTTTGTCGTCTTGTGTATGATTCGCTTTTCCC,Kd,[3],0.0138 nM
ligand 19 (ssDNA) DNA: TTCTCGGTTGGTCTCTGGCGGAGCGAATCGGACATCAAGGGTTCCAGCAGTGCTTCTTGTGTATGATTCGCTTTTCCC,Kd,[4],0.0112 nM
ligand 20 (ssDNA) DNA: TTCTCGGTTGGTCTCTGGCGGAGCGATCAGACACGAAACATTGCGGACTTTTGTCTTGTGTATGATTCGCTTTTCCC,Kd,[5],0.105 nM
ligand 10 (ssDNA) DNA: TTCTCGGTTGGTCTCTGGCGGAGCGGATCAGACACGAAACATTGCGGACTTTTGTCTTGTGTATGATTCGCTTTTCCC,Kd,[6],0.03 nM
ligand 6 (TQH6) (ssDNA) DNA: TTCTCGGTTGGTCTCTGGCGGAGCGAATCATACGAAGACATTCCAACGTTTTGTCTTGTGTATGATTCGCTTTTCCC,Kd,[7],0.0085 nM
same,IC50,[8],30 nM
ligand 22 (TQH22) / TZ3 (ssDNA) DNA: TTCTCGGTTGGTCTCTGGCGGAGCATACACGACGTCATTCTAGCGTTTTGACGTCTTGTGTATGATTCGCTTTTCCC,IC50,[9],37 nM
same,Kd,[10],0.014 nM
ligand 28 (TQH28) (ssDNA) DNA: TTCTCGGTTGGTCTCTGGCGGAGCAGGAGCAAGAATCATTCTTAGCGTTTTGATTCTTGTGTATGATTCGCTTTTCCC,Kd,[11],0.0135 nM
same,IC50,[8],37 nM
ligand 36 (Taq selection) (ssDNA) DNA: TTCTCGGTTGGTCTCTGGCGGAGCAGAAGCAAGAATCATTCTTAGCGTTTTGATTCTTGTGTATGATTCGCTTTTCCC,Kd,[12],0.031 nM
